Experimental data taken from KR20140009174A (dated 2014).

Legend:
[1] = target: CXCR4/Rluc + CXCR4/YFP (HEK293 세포의 CXCR4 동종이량체 BRET 파트너) (human; Renilla reniformis); test: cell-based or functional assay
[2] = target: T1, 인간 CXCR4 (케모카인 (C-X-C 모티브) 수용체 4) (human, UniProt P61073 1-352); test: competition flow cytometry on NIH3T3-CXCR4 cells; competitor biotinylated mouse 515H7
T1 construct: also called hCXCR4; CXCR4 수용체

[3] = target: T1, 인간 CXCR4 (케모카인 (C-X-C 모티브) 수용체 4); test: competition flow cytometry on NIH3T3-CXCR4 cells; competitor biotinylated mouse 515H7 (legend of Fig. 19)
[4] = target: T1, 인간 CXCR4 (케모카인 (C-X-C 모티브) 수용체 4); test: cell-based or functional assay
[5] = target: T1, 인간 CXCR4 (케모카인 (C-X-C 모티브) 수용체 4); test: FACS on NIH3T3-CXCR4 cells (legend of Fig. 21)

T1 sequence (P61073 whole entry): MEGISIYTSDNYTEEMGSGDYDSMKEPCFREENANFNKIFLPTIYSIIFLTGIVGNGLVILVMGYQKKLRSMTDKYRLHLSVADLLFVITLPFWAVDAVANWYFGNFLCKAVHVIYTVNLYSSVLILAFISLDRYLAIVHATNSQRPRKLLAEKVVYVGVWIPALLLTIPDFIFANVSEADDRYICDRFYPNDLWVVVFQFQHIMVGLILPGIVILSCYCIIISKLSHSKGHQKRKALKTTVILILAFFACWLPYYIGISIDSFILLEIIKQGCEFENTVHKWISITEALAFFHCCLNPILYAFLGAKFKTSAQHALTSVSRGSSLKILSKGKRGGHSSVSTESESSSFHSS
CXCR4/Rluc + CXCR4/YFP (HEK293 세포의 CXCR4 동종이량체 BRET 파트너) (human; Renilla reniformis), sequence (chain, as listed by the source, chain 1 of 2): as the sequence (P61073 whole entry) above
CXCR4/Rluc + CXCR4/YFP (HEK293 세포의 CXCR4 동종이량체 BRET 파트너) (human; Renilla reniformis), sequence (chain, as listed by the source, chain 2 of 2): as the sequence (P61073 whole entry) above

| Binder | SDF-1-유도성 BRET 증가의 저해 [1] | binding result [5] | SDF-1-유도성 BRET 증가의 저해 백분율 [1] | also measured |
| --- | --- | --- | --- | --- |
| 항-CXCR4 Mab 301aE5 (마우스 모노클론 항체) (antibody, V domains shown) VH: QVQLKESGPGLVAPSQSLSITCTVSGFSLTDYGVYWVRQPPGKGLEWLGMIWGDGTTDYNSALKSRLSISKDNSKSQVFLKMNTLQTDDTARYYCARGRQFGFDYWGQGTTLTVSS VL: DIVMSQSPSSLAVSAGEKVTMRCKSSQSLFNSRTRKNYLAWYQQKPGQSPKLLIFWASIRESGVPDRFTGSGSGTDFTLTISSVQAEDLAVYYCKQSYNLRTFGGGTKLEIK | 69% | – | – | – |
| 515H7 인간화 VH 변형체 1 (VH1) + 마우스/키메라 VL (cVL) (antibody, human IgG1, kappa, also called VH1 cVL; VH 변형체 1 (VH1) 마우스 VL 조합) heavy: not shown light: DIVMSQSPSSLAVSAGEKVTMSCKSSQSLFNSRTRKNYLAWYQQKPGQSPKLLIYWASARDSGVPARFTGSGSETYFTLTISRVQAEDLAVYYCMQSFNLRTFGQGTKVEIKRTVAAPSVFIFPPSDEQLKSGTASVVCLLNNFYPREAKVQWKVDNALQSGNSQESVTEQDSKDSTYSLSSTLTLSKADYEKHKVYACEVTHQGLSSPVTKSFNRGEC | – | – | – | binding result [2]: binds |
| hz515H7 VH1 VL2 (VH 변형체 1 + VL 변형체 2) (antibody, human IgG1, kappa) heavy: not shown light: DIVMTQSPSSLAVSLGERATMSCKSSQSLFNSRTRKNYLAWYQQKPGQSPKLLIYWASARDSGVPARFTGSGSETYFTLTISRVQAEDLAVYYCMQSFNLRTFGQGTKVEIKRTVAAPSVFIFPPSDEQLKSGTASVVCLLNNFYPREAKVQWKVDNALQSGNSQESVTEQDSKDSTYSLSSTLTLSKADYEKHKVYACEVTHQGLSSPVTKSFNRGEC | – | – | – | binding result [3]: binds |
| 항-CXCR4 키메라 Mab c515H7 (antibody, human IgG1, kappa, V domains shown) VH: EVNLVESGGGLVQPGGSLRLSCATSGFTFTDNYMSWVRQPPGKALEWLGFIRNKANGYTTDYSASVRGRFTISRDNSQSILYLQMNALRAEDSATYYCARDVGSNYFDYWGQGTTLTVSS VL: DIVMSQSPSSLAVSAGEKVTMSCKSSQSLFNSRTRKNYLAWYQQKPGQSPKLLIYWASARDSGVPARFTGSGSETYFTLTISRVQAEDLAVYYCMQSFNLRTFGQGTKVEIKR | 96% | – | – | IC50, 89.6 복제 저해, 마라비록 2 μg/ml 첨가 시 [4]: 0.2 µg/mL; IC50, 인간 PBMC에서 이중 친화성 X4R5 바이러스 89.6 복제 저해 (다수 회차 검정법) [4]: 2 µg/mL |
| hz515H7 VH1 D76N VL2.1 (antibody, V domains shown) VH: EVQLVESGGGLVQPGRSLRLSCTASGFTFTDNYMSWVRQAPGKGLEWVGFIRNKANGYTTEYAASVKGRFTISRDNSKSIAYLQMNSLKTEDTAVYYCARDVGSNYFDYWGQGTLVTVSS VL: DIVMTQSPDSLAVSLGERATMSCKSSQSLFNSRTRKNYLAWYQQKPGQPPKLLIYWASARDSGVPDRFSGSGSETYFTLTISRVQAEDLAVYYCMQSFNLRTFGQGTKVEIKR | – | binds | 65% | – |
| 항-CXCR4 Mab 515H7 (마우스 모노클론 항체) (antibody, V domains shown) VH: EVNLVESGGGLVQPGGSLRLSCATSGFTFTDNYMSWVRQPPGKALEWLGFIRNKANGYTTDYSASVRGRFTISRDNSQSILYLQMNALRAEDSATYYCARDVGSNYFDYWGQGTTLTVSS VL: DIVMSQSPSSLAVSAGEKVTMSCKSSQSLFNSRTRKNYLAWYQQKPGQSPKLLIYWASARDSGVPARFTGSGSETYFTLTISRVQAEDLAVYYCMQSFNLRTFGGGTKLEIK | 69% | – | – | – |
| hz515H7 VH1 D76N VL2.2 (antibody, V domains shown) VH: EVQLVESGGGLVQPGRSLRLSCTASGFTFTDNYMSWVRQAPGKGLEWVGFIRNKANGYTTEYAASVKGRFTISRDNSKSIAYLQMNSLKTEDTAVYYCARDVGSNYFDYWGQGTLVTVSS VL: DIVMTQSPDSLAVSLGERATMSCKSSQSLFNSRTRKNYLAWYQQKPGQPPKLLIYWASARDSGVPDRFTGSGSETYFTLTISRVQAEDVAVYYCMQSFNLRTFGQGTKVEIKR | – | binds | 33% | – |
| hz515H7 VH1 D76N VL2.3 (antibody, V domains shown) VH: EVQLVESGGGLVQPGRSLRLSCTASGFTFTDNYMSWVRQAPGKGLEWVGFIRNKANGYTTEYAASVKGRFTISRDNSKSIAYLQMNSLKTEDTAVYYCARDVGSNYFDYWGQGTLVTVSS VL: DIVMTQSPDSLAVSLGERATMSCKSSQSLFNSRTRKNYLAWYQQKPGQPPKLLIYWASARDSGVPDRFTGSGSETYFTLTISSLQAEDLAVYYCMQSFNLRTFGQGTKVEIKR | – | binds | 21% | – |
| hz515H7 VH1 D76N VL2 (antibody, V domains shown, also called hz515H7 VH1 D76N-VL2 Mab; 인간화 515H7 Mab) VH: EVQLVESGGGLVQPGRSLRLSCTASGFTFTDNYMSWVRQAPGKGLEWVGFIRNKANGYTTEYAASVKGRFTISRDNSKSIAYLQMNSLKTEDTAVYYCARDVGSNYFDYWGQGTLVTVSS VL: DIVMTQSPSSLAVSLGERATMSCKSSQSLFNSRTRKNYLAWYQQKPGQSPKLLIYWASARDSGVPARFTGSGSETYFTLTISRVQAEDLAVYYCMQSFNLRTFGQGTKVEIKR | – | binds | ~88% | – |
